Test results from patent publication US20240269104A1, “METHOD FOR TREATING PARKINSON'S DISEASE” (Olatec Therapeutics, Inc., priority 2021, published 2024).

Legend:
[1] = in vivo; cited from earlier work
[2] = tested on: MPTP-injected-mouse model of PD; experiment: accelerating rotarod test after MPTP-acute administration; format: in vivo, C56BL/J mice; details: anakinra 20 mg/kg intraperitoneal 30 minutes before MPTP; day 3
Description: MPTP (Sigma-Aldrich, St. Louis, MO) can be administered at two dose regimens: acute and sub-acute. For the acute regimen, MPTP was administered intraperitoneally (i.p.) four times in one day. Administrations were performed every two hours over an eight-hour period. For the subacute regimen, mice received a single i.p. administration of MPTP per day for five consecutive days. A 20 mg/kg free-base MPTP dose was used for every dose in both models. Sterile saline was used as the vehicle. Control mice were injected with saline solution using the same administration protocol and were defined as sham. Mice were sacrificed at different days after the first injection of MPTP. We used the acute protocol in C56BL/J mice to study dopamine neurodegeneration, inflammation, and motor deficits, whereas the subacute model was used to evaluate α-synuclein aggregation in the following examples. […]
The accelerating rotarod (Ugo Basile, Gemonio, ITALY) was used to evaluate locomotor function in mice subjected to the MPTP-acute administration. An accelerating program was selected to detect locomotor impairments associated to MPTP (Keshet et al, J Comp Neurol 504:690-701, 2007; Rui et al., Int J Neuropsychopharmacol., 2020). We used a rotarod device with a cylinder rod of three centimeters in diameter. The mice underwent a training period of three consecutive days prior to MPTP administration. In each training session, mice were subjected to run at four constant speeds (10 rpm, 20 rpm, 30 rpm, and 40 rpm) for 150 seconds at each speed. If mice fell during that time, they were put back in the rotarod immediately. On the testing day, we used an increased-speed program. Mice were placed on the rotarod device for 150 seconds at 30 rpm as warm up. Immediately after 150 seconds, the accelerating session started, and the speed increased from 30 rpm to 70 rpm for 500 seconds. Time to fall was recorded. Accelerating sessions were repeated three times with a resting interval of five minutes between sessions. Average time to fall per mouse was calculated and used as final measurement.
We then evaluated the effect of dapansutrile. To avoid overloading animals with fluid (which can lead to fatal heart failure), dapansutrile was administered through oral gavage at 200 mg/kg in water. Dapansutrile was given 30 minutes before the first injection of MPTP. Mice treated with saline were used as control. We also included a sham-group that received saline through intraperitoneal injections instead of MPTP. […]

anakinra: Interleukin-1 receptor antagonist (IL-1Ra), 17.3 kDa; differs from native human IL-1Ra by an added amino-terminal methionine and absence of glycosylation [reference compound]
CSF penetration [1]: 0.2-0.3%
rotarod latency to fall versus control mice treated with saline [2]: the same latency to fall
